Test results taken from patent US20090239795A1.

These substances were tested against rat GLP-1 receptor (rat) (UniProt P32301) (assay: cell-based or functional assay).
Work on “GLP-1(7-37,A8G,K34A) (PEAPTD)2 (SEQ ID NO: 5) mTf fusion protein (from UniProt P01275 98-128) (ligand)” yielded a Potency (nM), cAMP accumulation in CHO-GLP-1R cells of 1.3 nM. With “Exendin-4(1-31) (PEAPTD)2 mTf fusion protein (ligand)” the Potency (nM), cAMP accumulation in CHO-GLP-1R cells was 0.33 nM. “Exendin-4(1-30) (PEAPTD)2 mTf fusion protein (ligand)” gave a Potency (nM), cAMP accumulation in CHO-GLP-1R cells of 0.85 nM.
